Measurements from the supplement of paper PMC9732359.
± gives the uncertainty stated by the source.

Test: protein stability index of a GFP-peptide fusion (yeast GPS) (PSI 1-4); higher = more stable; sorted into four equal gates, so the index is relative within each strain
How it was run: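 Sequencing reads from sorted gates were used to score each peptide. The library consisted of tiled 17-residue yeast protein peptides fused downstream of GFP on a Cherry-expressing plasmid, pooled and carried in yeast. Mid-log cultures in leucine-free medium were split into four equal gates by GFP/Cherry ratio, and each gate's plasmids were PCR-amplified and Illumina-sequenced. The protein stability index adds up, over all gates, the read frequency multiplied by the gate number.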

| Sequence | protein stability index (doa10∆) | protein stability index (pdr5∆) | protein stability index (san1∆) | protein stability index (ubr1∆) |
| --- | --- | --- | --- | --- |
| KLNKKLQHLRSRCHLVT [SRP68] | 3.23 ± 0.11 | 3.34 ± 0.09 | 3.3 ± 0.039 | 3.27 ± 0.077 |
| KLQKYGAAVRLTGSDRV [RPN7] |  | 3.62 ± 0.27 |  | 2.99 ± 0.14 |
| KLRARLVEYGFDPSRIK [SMC2] | 2.73 ± 0.06 | 2.62 ± 0.092 | 2.33 ± 0.08 | 2.01 ± 0.034 |
| KLREPVARFLHFNGIRR [ITC1] | 2.04 ± 0.088 | 2.05 ± 0.063 | 2.5 ± 0.083 | 2.09 ± 0.046 |
| KLRRECSNPTCGAGVFL [RPS31] | 1.78 ± 0.048 | 2.44 ± 0.065 | 2.11 ± 0.07 | 1.86 ± 0.038 |
| KLSCIQLNCIDTQFTKL [SRB8] | 2.09 ± 0.046 | 1.92 ± 0.062 | 2.31 ± 0.091 | 2.61 ± 0.045 |
| KLSEIILNINNSTSKNT [SWI1] | 2.96 ± 0.067 | 2.92 ± 0.077 | 2.74 ± 0.1 | 3.01 ± 0.062 |
| KLSIAEERDRRRAQQGL [RPS4A] | 2.11 ± 0.06 | 2.19 ± 0.069 | 2.49 ± 0.095 | 1.6 ± 0.063 |
| KLSNIWMQRQLIKGDAG [SRB2] | 2.93 ± 0.23 | 1.16 ± 0.14 |  | 1.25 ± 0.26 |
| KLTRELEKKFQDRHVIF [RPS7A] | 3.08 ± 0.14 | 3.5 ± 0.18 | 3.09 ± 0.086 | 3.18 ± 0.1 |
| KLYKKIAKFERSEEEVT [YIL149C/MLP2] | 3.25 ± 0.1 | 3.19 ± 0.078 | 3.17 ± 0.064 | 3.3 ± 0.078 |
| KLYTFLARRTDAPFNKV [RPL18A] | 1.78 ± 0.052 | 1.65 ± 0.042 | 1.97 ± 0.079 | 1.89 ± 0.068 |
| KMIEKIEKMSTIVQLCK [YIL149C/MLP2] | 2.65 ± 0.092 | 2.37 ± 0.067 | 1.98 ± 0.17 | 2.36 ± 0.098 |
| KMSDGFNGADIRNCATE [RPT4] | 3.43 ± 0.074 | 3.47 ± 0.059 | 3.35 ± 0.041 | 3.3 ± 0.043 |
| KMYDYEEKEESNLAATK [RPN11] | 3.17 ± 0.074 | 3.06 ± 0.082 | 2.87 ± 0.056 | 2.96 ± 0.1 |
| KMYSDDTLKDISTSFCF [BRN1] | 3.36 ± 0.086 | 3.33 ± 0.067 | 3.42 ± 0.039 | 3.22 ± 0.067 |
| KNAVVRSKFGGDFLDFQ [ARP7] | 3 ± 0.13 | 2.57 ± 0.12 | 3.31 ± 0.094 | 3.21 ± 0.083 |
| KNFDMLNSMEKDRISHE [PCI8] | 2.33 ± 0.069 | 2.31 ± 0.076 | 2.35 ± 0.08 | 2.4 ± 0.043 |
| KNGLYQEAFKIYQHLAS [SRP72] | 1.81 ± 0.061 | 2.14 ± 0.11 | 2.33 ± 0.23 | 2.77 ± 0.091 |
| KNPKFSNAFYSVLRDTL [SMC4] | 2.1 ± 0.084 | 2.34 ± 0.11 | 2.13 ± 0.093 | 2.13 ± 0.11 |
| KNRRRIHGELKTYKEGI [SMC1] | 3.23 ± 0.13 | 3.35 ± 0.062 | 3.17 ± 0.095 | 3.18 ± 0.054 |
| KNTSSMDFLNSMENTPK [GAL11] | 1.83 ± 0.059 | 1.67 ± 0.06 | 2.33 ± 0.12 | 3.02 ± 0.047 |

| Sequence | protein stability index (doa10∆) | protein stability index (pdr5∆) | protein stability index (san1∆) | protein stability index (ubr1∆) |
| --- | --- | --- | --- | --- |
| KNVGNKSPEQCILRFLQ [SWI3] | 2.15 ± 0.062 | 2.67 ± 0.051 | 2.31 ± 0.083 | 1.84 ± 0.033 |
| KNVLANSIWGSSLRKNA [ITC1] | 1.49 ± 0.057 | 1.89 ± 0.05 | 1.82 ± 0.13 | 1.45 ± 0.042 |
| KNWQNVGSLVVKSSMGP [RPL1A] | 2.1 ± 0.046 | 2.39 ± 0.051 | 2.7 ± 0.064 | 2.29 ± 0.045 |
| KPAFSFGATTNDDKKTE [YJL041W/NSP1] | 2.92 ± 0.099 | 3.07 ± 0.067 | 3.01 ± 0.058 | 2.89 ± 0.045 |
| KPFLKKTQEYYTQYTND [CDC53] | 3.02 ± 0.061 | 3.12 ± 0.053 | 3.07 ± 0.044 | 3.01 ± 0.046 |
| KPGRMPFNFTVTLFQMA [CDC53] | 1.65 ± 0.039 | 1.99 ± 0.043 | 2.17 ± 0.08 | 2.05 ± 0.051 |
| KPMAFSNTTTHVPEKKS [MTR3] | 1.46 ± 0.053 | 2.04 ± 0.052 | 2.32 ± 0.082 | 1.62 ± 0.034 |
| KPPTQKTDTKVSFRTHN [SRP21] | 2.52 ± 0.078 | 2.82 ± 0.072 | 2.57 ± 0.07 | 2.7 ± 0.065 |
| KPQEIKDILVKTGITKK [PRE9] | 3.39 ± 0.089 | 3.29 ± 0.086 | 2.56 ± 0.22 | 3.15 ± 0.14 |
| KPQRTNTLRMKHGTYDK [RPB2] | 2.74 ± 0.081 | 2.85 ± 0.061 | 2.84 ± 0.062 | 2.88 ± 0.044 |
| KPSSPPDVKSLVQLSTM [SIR4] | 3.41 ± 0.11 | 3.26 ± 0.07 | 3.12 ± 0.088 | 3.26 ± 0.06 |
| KPYKQVKQIAPAELEGL [FAS2] | 2.36 ± 0.061 | 2.14 ± 0.055 | 2.47 ± 0.083 | 1.9 ± 0.053 |
| KQEIMMSDLFTFDWFIK [ISW2] | 2.85 ± 0.075 | 2.6 ± 0.055 | 2.46 ± 0.07 | 2.9 ± 0.047 |
| KQEQEEKIKSKKINRRN [YCG1] | 3.4 ± 0.18 | 2.87 ± 0.17 | 2.75 ± 0.29 | 3.22 ± 0.15 |
| KQERLKENEESLTPTQS [PRP28] | 3.13 ± 0.092 | 3.4 ± 0.07 | 3.22 ± 0.12 | 3.15 ± 0.074 |
| KQINHQGEEEELIALNL [RPB4] | 3.34 ± 0.15 | 3.59 ± 0.13 | 3.2 ± 0.076 | 3.42 ± 0.11 |
| KQLQLAMHNSKAASSTR [POP1] | 1.96 ± 0.057 | 2.17 ± 0.071 | 1.54 ± 0.11 | 1.74 ± 0.037 |
| KQNSSSDINQNDDSSSM [YDL088C/ASM4] | 3.1 ± 0.17 | 2.94 ± 0.08 | 2.58 ± 0.088 | 2.69 ± 0.058 |
| KQRTKKEDKSEAIDGNG [SNF2] | 3.55 ± 0.13 | 3.36 ± 0.075 | 3.17 ± 0.073 | 3.19 ± 0.072 |
| KQTADWLAEKFQKETNM [PRP28] | 2.57 ± 0.2 | 3.12 ± 0.14 | 3.43 ± 0.091 | 3.16 ± 0.21 |
| KQTKLRKEKEKKPGKIA [SMB1] |  | 3.36 ± 0.15 | 2.51 ± 0.29 |  |
